This is an account of results in US6946265 (Xencor, dated 2005).

To fix the notation:
T1: full-length human growth hormone receptor (hGHR) (human, UniProt P10912 19-638)
T1 sequence (looked up): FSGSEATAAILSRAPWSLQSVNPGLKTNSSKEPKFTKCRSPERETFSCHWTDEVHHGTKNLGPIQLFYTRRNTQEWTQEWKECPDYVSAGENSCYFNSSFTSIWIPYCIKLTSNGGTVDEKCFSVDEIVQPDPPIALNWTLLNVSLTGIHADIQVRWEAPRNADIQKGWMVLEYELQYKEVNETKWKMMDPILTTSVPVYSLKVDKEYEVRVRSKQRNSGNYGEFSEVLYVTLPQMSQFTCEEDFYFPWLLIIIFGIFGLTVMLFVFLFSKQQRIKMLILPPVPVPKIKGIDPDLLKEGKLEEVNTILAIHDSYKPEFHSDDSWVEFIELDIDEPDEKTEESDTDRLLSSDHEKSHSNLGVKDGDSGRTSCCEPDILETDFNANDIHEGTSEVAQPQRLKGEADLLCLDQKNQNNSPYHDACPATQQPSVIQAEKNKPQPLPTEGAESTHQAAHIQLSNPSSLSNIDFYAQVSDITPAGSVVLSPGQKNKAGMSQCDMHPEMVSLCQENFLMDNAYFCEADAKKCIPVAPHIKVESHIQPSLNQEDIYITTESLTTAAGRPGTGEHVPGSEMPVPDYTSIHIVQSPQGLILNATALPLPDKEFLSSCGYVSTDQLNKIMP

B1: GHA protein mutant b (A13V, T27V, S79A, V90I, G161M, S184A) (ligand)
chain: FPTIPLSRLFDNVMLRAHRLHQLAFDVYQEFEEAYIPKEQKYSFLQNPQTSLCFSESIPTPSNREETQQKSNLELLRIALLLIQSWLEPIQFLRSVFANSLVYGASDSNVYDLLKDLEEGIQTLMGRLEDGSPRTGQIFKQTYSKFDTNSHNDDALLKNYMLLYCFRKDMDKVETFLRIVQCRAVEGSCGF
B2: GHA protein mutant d (A13V, T27V, S55A, S79A, S85A, V90I, G161M, S184A) (ligand)
chain: FPTIPLSRLFDNVMLRAHRLHQLAFDVYQEFEEAYIPKEQKYSFLQNPQTSLCFAESIPTPSNREETQQKSNLELLRIALLLIQAWLEPIQFLRSVFANSLVYGASDSNVYDLLKDLEEGIQTLMGRLEDGSPRTGQIFKQTYSKFDTNSHNDDALLKNYMLLYCFRKDMDKVETFLRIVQCRAVEGSCGF
B3: GHA protein mutant f (A13V, T27V, Y28F, F54Y, S55A, S79A, S85A, V90I, G161M, S184A) (ligand)
chain: FPTIPLSRLFDNVMLRAHRLHQLAFDVFQEFEEAYIPKEQKYSFLQNPQTSLCYAESIPTPSNREETQQKSNLELLRIALLLIQAWLEPIQFLRSVFANSLVYGASDSNVYDLLKDLEEGIQTLMGRLEDGSPRTGQIFKQTYSKFDTNSHNDDALLKNYMLLYCFRKDMDKVETFLRIVQCRAVEGSCGF

The target of this assay is T1, full-length human growth hormone …. The assay is described as follows: cell-based or functional assay.
Take B1: the “ED50, cell proliferation (MTT assay) of FDC-P1 cells transfected with hGHR” value worked out at 320. The figure for B2 is 260; for B3 it is 230.
